Measured values from article PMC8144435.
“And” between values parts separate entries of the source, which are not always exact repeats. Equal values may be shown once.

Biological target: Mayaro virus (MAYV) capsid (C) protein, strain IQT4235 (Mayaro virus (strain IQT4235))
Test: cryo-EM structure; purified mature infectious MAYV virions (5x10^10 PFU/mL, from Vero CCL81 cells) vitrified on Quantifoil R2/2 grids; 300 kV Titan Krios, single particle analysis with icosahedral symmetry, global resolution 4.4 Å; atomic model from a homology model on CHIKV (PDB 6NK5) refined into the map

Mayaro virus (MAYV) capsid (C) protein, strain IQT4235 (natural protein)
stoichiometry N: 6 and 5
